According to patent US20050208610:

Experiments:
[1] = target: T1, peptide CR002 (amino acids 41-60)
T1 chain: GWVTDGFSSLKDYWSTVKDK

[2] = target: T2, peptide CR006 (amino acids 49-62)
T2 chain: SLKDYWSTVKDKFS

B1: TF:VIIa complex (protein)
chain 1: SGTTNTVAAYNLTWKSTNFKTILEWEPKPVNQVYTVQISTKSGDWKSKCFYTTDTECDLTDEIVKDVKQTYLARVFSYPAGNVESTGSAGEPLYENSPEFTPYLETNLGQPTIQSFEQVGTKVNVTVEDERTLVRRNNTFLSLRDVFGKDLIYTLYYWKSSSSGKKTAKTNTNEFLIDVDKGENYCFSVQAVIPSRTVNRKSTDSPVECMGQEKGEFREIFYIIGAVVFVVIILVIILAISLHKCRKAGVGQSWKENSPLNVS
chain 2: ANAFLEELRPGSLERECKEEQCSFEEAREIFKDAERTKLFWISYSDGDQCASSPCQNGGSCKDQLQSYICFCLPAFEGRNCETHKDDQLICVNENGGCEQYCSDHTGTKRSCRCHEGYSLLADGVSCTPTVEYPCGKIPILEKRNASKPQGRIVGGKVCPKGECPWQVLLLVNGAQLCGGTLINTIWVVSAAHCFDKIKNWRNLIAVLGEHDLSEHDGDEQSRRVAQVIIPSTYVPGTTNHDIALLRLHQPVVLTDHVVPLCLPERTFSERTLAFVRFSLVSGWGQLLDRGATALELMVLNVPRLMTQDCLQQSRKVGDSPNITEYMFCAGYSDGSKDSCKGDSGGPHATHYRGTWYLTGIVSWGQGCATVGHFGVYTRVSQYIEWLQKLMRSEPRPGVLLRAPFP
Q: For B1, which “2-stage chromogenic substrate assay that determines TF:VIIa-mediated activation of factor X” value [1] is on record?
A: retained the ability to inhibit TF:VIIa mediated activation of factor X, but at much lower potency than the apolipoprotein CIII fragment

Q: And the “2-stage chromogenic substrate assay that determines TF:VIIa-mediated activation of factor X” value (peptide CR003)?
A: showed no inhibitory activity in the chromogenic substrate assay

Q: And the “2-stage chromogenic substrate assay that determines TF:VIIa-mediated activation of factor X” value (peptide CR004)?
A: showed no inhibitory activity in the chromogenic substrate assay

Q: What about the “2-stage chromogenic substrate assay that determines TF:VIIa-mediated activation of factor X” value (peptide CR005) of the same protein?
A: showed no inhibitory activity in the chromogenic substrate assay

Q: What about the “2-stage chromogenic substrate assay that determines TF:VIIa-mediated activation of factor X” value [2] of the same protein?
A: Progressive loss of potency was shown as additional N-terminal residues were removed (CR006; amino acids 49-62)
